Reference: US20210061908A1 (IOMX THERAPEUTICS, published 2021)

T1: extracellular domain (ECD) of human IGSF11 (VSIG3), biotinylated (human, UniProt Q5DX21 23-241, biotinylated (site not stated))
T1 construct: also called human IGSF11 protein
T1 sequence: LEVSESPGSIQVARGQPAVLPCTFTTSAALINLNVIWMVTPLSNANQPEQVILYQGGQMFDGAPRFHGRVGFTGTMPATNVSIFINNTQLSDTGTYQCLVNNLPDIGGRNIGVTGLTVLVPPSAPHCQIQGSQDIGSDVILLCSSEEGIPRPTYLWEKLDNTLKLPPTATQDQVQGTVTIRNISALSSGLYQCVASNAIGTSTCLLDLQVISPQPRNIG

T2: extracellular domain (ECD) of murine IGSF11, biotinylated (mouse, UniProt P0C673 23-240, biotinylated (site not stated))
T2 construct: also called Mouse IGSF11; murine IGSF11 protein
T2 sequence: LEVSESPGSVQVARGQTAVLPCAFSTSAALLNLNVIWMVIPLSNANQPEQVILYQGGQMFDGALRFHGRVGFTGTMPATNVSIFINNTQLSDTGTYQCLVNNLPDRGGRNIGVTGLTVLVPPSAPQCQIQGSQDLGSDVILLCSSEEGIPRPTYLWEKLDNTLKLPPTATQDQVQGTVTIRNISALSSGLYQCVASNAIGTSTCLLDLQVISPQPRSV

T3: extracellular domain (ECD) of human IGSF11 (VSIG3), HIS-tagged (human, UniProt Q5DX21 23-241, biotinylated in the ELISA of Example 4 (site not stated))
T3 construct: also called HIS-IGSF11; IGSF11-HIS; not shown: HIS6 tag
T3 sequence: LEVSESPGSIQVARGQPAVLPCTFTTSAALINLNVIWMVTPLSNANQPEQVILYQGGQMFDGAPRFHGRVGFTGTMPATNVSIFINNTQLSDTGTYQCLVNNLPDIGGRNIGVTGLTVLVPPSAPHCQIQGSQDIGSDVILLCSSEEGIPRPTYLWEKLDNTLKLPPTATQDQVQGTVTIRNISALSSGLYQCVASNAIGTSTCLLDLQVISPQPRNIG


Columns and labels:
[1] = target: T1, extracellular domain (ECD) of human …; assay: ELISA, scFv; RFU grade (*** >1.0, ** 0.5-1.0, * 0.1-0.5)
[2] = target: T2, extracellular domain (ECD) of murine …; assay: as above
[3] = target: T3, extracellular domain (ECD) of human …; assay: ELISA, coated IGSF11-HIS, IgG1 format; EC50 grade (* >1 nM, ** 0.05-1 nM, *** 0.02-0.05 nM, **** <0.02 nM)

Binder	relative fluorescent units (RFU), ELISA [1] [rfu]	relative fluorescent units (RFU), ELISA [2] [rfu]	EC50 [3] [pM]
A-016 (scFv format) (scFv, V domains shown, scFv) VH: QVQLQESGAEVKKPGASVKVSCKASGYTFTGYYMHWVRQAPGQGLEWMGGIIPIFGTANYAQKFQGRVTITADESTSTAYMELSSLRSEDTAVYYCAGAGMELTRSGAYYYYGMDVWGQGTTVTVSS VL: QSALTQPASVSGSPGQSITISCTGTSSDIGGYTFVSWYQQHPGKAPKVMIHDVNNRPSGISNRFSGSKSGNTASLTISGLQAEDEADYYCSSVTSTNTYVFGTGTKVTVL	> 1	0.5 to 1	–
A-022 (scFv format) (scFv, V domains shown, scFv) VH: EVQLLESGPGLVKPSQTLSLTCTVSGGSISSGGYYWSWIRQHPGKGLEWIGYIYYSGSTYYNPSLKSRVTISVDTSKNQFSLKLSSVTAADTAVYYCARASRSTDYYFDYWGQGTLVTVSS VL: QPGLTQPPSMSYGLGQTATLTCTGNRNNIGDQGAAWLQQHQGHPPKLLSYRNNNGPSGISERLSASRSGNTASLTISGLQPEDEADYYCSAWDSSLRAWVFGGGTKLTVL	0.5 to 1	> 1	–
A-010 (human IgG1 format) (antibody, V domains shown, human IgG1 format) VH: QVQLVQSGAEVKKPGASVKVSCKASGYTFTSYGISWVRQAPGQGLEWMGWISAYNGNTNYAQKLQGRVTMTTDTSTSTAYMELRSLRSDDTAVYYCARVPAWSGQFDYWGQGTLVTVSS VL: QSALTQPASVSGSPGQSITISCTGSSSDVGGYNYVSWYQQYPGKAPKLMIYDVRSRPSGVSNRFSGSKSGNTASLTISGLQAEDEADYYCTSYTSSNTLVIFGGGTKVTVL	–	–	< 20
A-024 (scFv format) (scFv, V domains shown) VH: QMQLVQSGAEVKKPGSSVKVSCKASGGTFSSYAISWVRQAPGQGLEWMGWISAYNGNTNYAQKLQGRVTMTTDTSTSTAYMELRSLRSDDTAVYYCASLGSYGYTGAFDIWGQGTMATVSS VL: QSALTQPASVSGSPGQSITISCTGTSSDVGGYNYVSWYQQHPGKAPKLMIYEVSNRPSGVSNRFSGSKSGNTASLTISGLQAEDEADYYCSSYTSSSTLVVFGGGTKLTVL	0.5 to 1	0.1 to 0.5	–
A-021 (scFv format) (scFv, V domains shown, scFv) VH: QVQLVQSGAEVKKPGASVKVSCKASGYTFTSYGISWVRQAPGQGLEWMGWISAYNGNTNYAQKLQGRVTMTTDTSTSTAYMELRSLRSDDTAVYYCARVPAWSGQFDYWGQGTLVTVSS VL: QSALTQPASVSGSPGQSITISCTGTSSDVGGYNYVSWYQQHPGKAPKLMIYEVTNRPSGVSDRFSGSKSANTASLTISELQAEDEAVYYCNSYTSGPTYVLFGGGTQLTVL	0.5 to 1	0.1 to 0.5	–
A-003 (scFv format) (scFv, V domains shown, scFv) VH: VQLVQSGAEVKKPGSSVKVSCKASGGTFSSYAISWVRQAPGQGLEWMGGIIPIFGTANYAQKFQGRVTITADESTSTAYMELSSLRSEDTAVYYCASPRIQLWAAGGFDYWGQGTLVTVSS VL: QSALTQPASVSGSPGQSITISCTGTSSDVGGYNLVSWYQQHPGKAPKLMIYDVSNRPSGVSNRFSGSKSGNTASLTISGLQAEDEADYYCSSFTTSTTLVFGGGTKLTVL	0.1 to 0.5	0.1 to 0.5	–
A-025 (scFv format) (scFv, V domains shown, scFv) VH: QVQLVQSGAEVKKPGSSVKVSCKASGGTFSSYAISWVRQAPGQGLEWMGGIIPIFGTANYAQKFQGRVTITADESTSTAYMELTSLRSEDTAVYYCARGGWLRQNWFDPWGQGTLVTVSS VL: SSELTQDPAVSVALGQTVRITCQGDSLRSYYASWYQQKPGQAPVLVIYGKNNRPSGIPDRFSGSSSGNTASLTITGAQAEDEADYYCNSRDSSGNHPRVFGGGTKLTVL	0.1 to 0.5	0.1 to 0.5	–
A-011 (scFv format) (scFv, V domains shown, scFv) VH: QVQLVESGGGVVQPGRSLRLSCAASGFTFSSYAMHWVRQAPGKGLEWVAVISYDGSNKYYADSVKGRFTISRDNSKNTLYLQMNSLRAEDTAVYYCAEGGALNYYGMDVWGQGTTVTVSS VL: SSELTQDPGVSVALGQTVRITCQGDSLRHFYATWYQQKPGQAPILVIYGKNNRPSGIPDRFSGSSSEDTASLTITGAQAEDEADYYCQSRDPRNNHLIFGGGTKLIVL	0.1 to 0.5	> 1	–
A-028 (scFv format) (scFv, V domains shown, scFv) VH: QVQLVQSGAEVKKPGSSVKVSCKASGGTFSSYAISWVRQAPGQGLEWMGGIIPIFGTANYAQKFQGRVTITADESTSTAYMELSSLRSEDTAVYYCARVGVEYQLLWYFDYWGQGTLVTVSS VL: DIQMTQSPSSLSASVGDRVTLTCRTSQTISNYLNWYQQKPGKAPKLLVYAASNLQSWVPSRFSGSGSGTDFTLTISSLQPEDFATYYCQQSYNASFGGGTKVEFK	0.1 to 0.5	0.1 to 0.5	–
A-027 (scFv format) (scFv, V domains shown, scFv) VH: QVQLVQSGAEVKKPGSSVKVSCKASGGTFSSYAISWVRQAPGQGLEWMGGIIPIFGTANYAQKFQGRVTITADKSTSTAYMELSSLRSEDTAVYYCARARGSTWGYFDYWGQGTLVTVSS VL: EIVLTQSPASLSLSPGERVTLSCRASQSVSNYLAWYQQKPGQAPRLLIYDASNRATGIPARFSGSGSGTDFTLTISSLEPEDFAVYYCQQRDNWPLTFGGGTKVEIK	0.1 to 0.5	0.1 to 0.5	–
A-017 (scFv format) (scFv, V domains shown, scFv) VH: QVQLVQSGAEVKKPGASVKVSCKASGYTFTGYYMHWVRQAPGQGLEWMGWINPNSGNTGYAQKFQGRVTMTRNTSISTAYMELSSLRSEDTAVYYCARGGQQQLVLDDYWGQGTLVTVSS VL: DIVLTQSPASLSASVGDRITITCQASQDIRHHLNWFQHKPGKAPKLLISDSSNLETGVPSRFSGSGSGTDFSFTISRLQPEDIATYYCQQYDSLPRTFGQGTKLEIK	0.5 to 1	0.1 to 0.5	–
A-019 (scFv format) (scFv, V domains shown, scFv) VH: QVQLVQSGAEVKKPGASVKVSCKASGYTFTGYYMHWVRQAPGQGLEWMGWINPNSGNTGYAQKFQGRVTMTRNTSISTAYMELSSLRSEDTAVYYCARGGQQQLVLDDYWGQGTLVTVSS VL: not shown	> 1	0.5 to 1	–
A-023 (scFv format) (scFv, V domains shown, scFv) VH: QVQLVQSGAEVKKPGSSVKVSCKASGGTFSSYAISWVRQAPGQGLEWMGGIIPIFGTANYAQKFQGRVTITADESTSTAYMELSSLRSEDTAVYYCARPKYSSGWFYYYGMDVWGQGTTVTVSS VL: QSVLTQPPSVSAAPGQKVTISCSGSSSNIGNNYVSWYQQLPGTAPKLLIYDNNKRPSGIPDRFSGSKSGTSATLGITGLQTGDEADYYCGTWDSSLSVVFGGGTKLTVL	0.5 to 1	0.1 to 0.5	–
A-014 (scFv format) (scFv, V domains shown, scFv) VH: QVQLVQSGAEVKKPGASVKVSCKASGYTFNDYYIHWVRQAPGQGLEWMGWFNPSTGGANYAQKFQGRVTMTRDTSISTAYLEVSSLRSDDTAVYYCARGNSPDLDYWGQGTLVTVSS VL: DIQMTQSPDSLTVSLGERATINCKSSQSLLHSSNNKNYLAWYQQRPGQPPKLLIYWASTRQSGVPDRFSGSGSGTDFTLTINSLQADDMAVYYCQQYYTTTPNTFGQGTKLEIK	0.5 to 1	0.1 to 0.5	–
A-015 (scFv format) (scFv, V domains shown, scFv) VH: not shown VL: QPVLTQSPSASASLGASVKLTCTLSSGHTNYAIAWRQQQPGKAPRYLMLLNSDGSHTRGGGIPDRFSGSSSGAERYLTISSLQSEDEADYYCMIWHNNAWVFGGGTKLAVL	0.5 to 1	0.5 to 1	–
A-001 (human IgG1 format) (antibody, V domains shown, human IgG1 format) VH: EVQLVESGGGLVKPGGSLRLSCAASGFTFSSYSMNWVRQAPGKGLEWVSSISSSSSYIYYADSVKGRFTISRDNAKNSLYLQMNSLRAEDTAVYYCVRSIIVQALGITSVFDIWGQGTMVTVSS VL: AIRLTQSPSSLSASVGDRVTISCRASQIISNHLNWYQQKPGKAPKLLIYAASRLQTGVPSRFSGSGSETDYTLTISSLQPEDFATYYCQQSYSNPRTFGHGTKVEIK	–	–	< 20
A-026 (scFv format) (scFv, V domains shown, scFv) VH: QVQLQESGPGLVKPSQTLSLTCTVSGGSISSGGYYWSWIRQHPGKGLEWIGYIYYSGSTYYNPSLKSRVTISVDTSKNQFSLKLSSVTAADTAVYYCASWSLGTSNHGWFDPWGQGTLVTVSS VL: QSVLTQPPSASGTPGQRVTISCSGSSSNIGSNTVNWYQQLPGTAPKLLISDNNNRPSGVPDRFSGSKSGTSASLAITGLQAEDEADYYCQSYDSNLSGWVFGGGTKLTVL	> 1	> 1	–
A-029 (scFv format) (scFv, V domains shown, scFv) VH: QVQLVQSGAEVKKPGSSVKVSCKASGGTFSSYAISWVRQAPGQGLEWMGGIIPIFGTANYAQKFQGRVTITADESTGTAYMELSSLRSEDTAVYYCARSYYYYYGMDVWGQGTTVTVSS VL: not shown	0.1 to 0.5	0.1 to 0.5	–
